Laboratory results: the supplement of paper PMC10724198
± gives the standard deviation of the averaged measurements.

Tested on: Saccharomyces cerevisiae
Assay: protein stability index of tFT-peptide fusion (C-terminal peptide) (PSI (0-1 scale)); higher = more stable (slower turnover)
Conditions: temperature: 30 C
Method: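 MPS profiling in S. cerevisiae of the yeast C-terminome library: the last 12 aa of each annotated ORF are fused to the C-terminus of a sfGFP-mCherry timer, after a GGGS linker. Cells are FACS-sorted into 8 mCherry/sfGFP bins and deep-sequenced. PSI runs from 0 (unstable) to 1 (stable); wild type and das1Δ backgrounds, two technical replicates each.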

[1] = genetic background: das1 deletion

| Sequence | protein stability index [1] | protein stability index (genetic background: wild type) |
| --- | --- | --- |
| NTLLSPSRKDNS [MVB12 C-terminal 12 aa] | 0.705 ± 0.0098 | 0.698 ± 0.034 |
| KHASELSSNSKF [CTA1 C-terminal 12 aa] | 0.702 ± 0.029 | 0.681 ± 0.048 |
| GLLVVFDRIDVK [MET7 C-terminal 12 aa] | 0.667 ± 0.015 | 0.634 ± 0.013 |
| YWRKQYPDADLP [YAR028W C-terminal 12 aa] | 0.714 ± 0.015 | 0.695 ± 0.033 |
| TAAQMLEVQNEA [ARI1 C-terminal 12 aa] | 0.6837 ± 0.0021 | 0.7016 ± 0.0034 |
| RRHYSNEDSSFL [APC9 C-terminal 12 aa] | 0.7169 ± 0.0022 | 0.689 ± 0.036 |
| LIMELAVNSQSN [SNF1 C-terminal 12 aa] | 0.681 ± 0.034 | 0.691 ± 0.027 |
| CFPDDIFEYAVE [GLG1 C-terminal 12 aa] | 0.768 ± 0.015 | 0.76 ± 0.0098 |
| LRRYEEDLFCTF [IES2 C-terminal 12 aa] | 0.759 ± 0.029 | 0.7425 ± 0.0059 |
| VENTTVDFNYDM [YLR179C C-terminal 12 aa] | 0.69 ± 0.016 | 0.681 ± 0.03 |
| QIDKYMDLFTEG [PDH1 C-terminal 12 aa] | 0.7253 ± 0.0065 | 0.7354 ± 0.0063 |
| PDYKSNTQILVL [YOL155W-A C-terminal 12 aa] | 0.56446 ± 0.00018 | 0.584 ± 0.029 |
| NVDDAYSRVFGI [MPS2 C-terminal 12 aa] | 0.719 ± 0.011 | 0.673 ± 0.025 |
| IAEGKSVGIIGA [HXK2 C-terminal 12 aa] | 0.694 ± 0.022 | 0.682 ± 0.018 |
| FIENVLKKRNMK [LIP5 C-terminal 12 aa] | 0.7195 ± 0.0041 | 0.7 ± 0.041 |
| KDFQVNKEIKPY [SIR4 C-terminal 12 aa] | 0.713 ± 0.052 | 0.7378 ± 0.00099 |
| LSSSDDNYGSLA [SNA2 C-terminal 12 aa] | 0.702 ± 0.013 | 0.669 ± 0.034 |
| LKTIAAVFSVRV [YJR114W C-terminal 12 aa] | 0.612 ± 0.0077 | 0.629 ± 0.022 |
| GSGDEPDSKRRK [YCR051W C-terminal 12 aa] | 0.693 ± 0.044 | 0.666 ± 0.037 |
| PLLLVSHLNFAV [YIR020C-B C-terminal 12 aa] | 0.673 ± 0.0087 | 0.557 ± 0.033 |
| KAERCQYRLVTA [YCR025C C-terminal 12 aa] | 0.475 ± 0.031 | 0.508 ± 0.012 |

| Sequence | protein stability index [1] | protein stability index (genetic background: wild type) |
| --- | --- | --- |
| GKNQWFFSKLRF [RPL27A C-terminal 12 aa] | 0.707 ± 0.0096 | 0.683 ± 0.013 |
| MRLLGLTPVERM [YDR341C C-terminal 12 aa] | 0.672 ± 0.00072 | 0.696 ± 0.034 |
| NVEDEYSYSLTL [VPS68 C-terminal 12 aa] | 0.701 ± 0.0071 | 0.706 ± 0.066 |
| IQEDSPVMDNNT [FAP1 C-terminal 12 aa] | 0.722 ± 0.041 | 0.674 ± 0.036 |
| FADTRPFDEIYR [ATP23 C-terminal 12 aa] | 0.73 ± 0.00073 | 0.727 ± 0.063 |
| SSNFASNIFSLF [YBR089W C-terminal 12 aa] | 0.7346 ± 0.0049 | 0.448 ± 0.01 |
| VLGFFKRRSMKI [FRK1 C-terminal 12 aa] | 0.72 ± 0.014 | 0.678 ± 0.018 |
| SFLFGLYLLLHP [SPR2 C-terminal 12 aa] | 0.4995 ± 0.0033 | 0.484 ± 0.014 |
| ATPQKRTGPARG [YER088C-A C-terminal 12 aa] | 0.68 ± 0.018 | 0.66 ± 0.018 |
| YGCIALTVVFIL [YAR069C C-terminal 12 aa] | 0.232 ± 0.0061 | 0.223 ± 0.0052 |
| KVNENWKRYGYK [FDC1 C-terminal 12 aa] | 0.6814 ± 0.0052 | 0.703 ± 0.027 |
| KDVIEEALSRFG [UTP7 C-terminal 12 aa] | 0.704 ± 0.0086 | 0.677 ± 0.027 |
| LTYNTSCQRRQK [YOR161W-A C-terminal 12 aa] | 0.715 ± 0.0089 | 0.717 ± 0.072 |
| LDLWRDFLNQAN [IDS2 C-terminal 12 aa] | 0.742 ± 0.015 | 0.629 ± 0.029 |
| FIKKWAHYYKKF [SBE22 C-terminal 12 aa] | 0.711 ± 0.026 | 0.236 ± 0.0037 |
| LLSGEPLAKKKE [HMLALPHA2 C-terminal 12 aa] | 0.697 ± 0.0074 | 0.744 ± 0.036 |
| IVTKMDLLSYLA [CYS4 C-terminal 12 aa] | 0.674 ± 0.013 | 0.478 ± 0.0082 |
| YCLFEKPTETTN [ALG9 C-terminal 12 aa] | 0.736 ± 0.029 | 0.695 ± 0.061 |
| LYKPSVWDLFEY [FZF1 C-terminal 12 aa] | 0.716 ± 0.016 | 0.6818 ± 0.0023 |
| CGKCHSVYKVNA [RPS31 C-terminal 12 aa] | 0.70314 ± 0.00059 | 0.624 ± 0.041 |
| TLNFEEARKEYV [YDR509W C-terminal 12 aa] | 0.713 ± 0.016 | 0.728 ± 0.035 |

| Sequence | protein stability index [1] | protein stability index (genetic background: wild type) |
| --- | --- | --- |
| AKYSKKKNNKNK [DEG1 C-terminal 12 aa] | 0.689 ± 0.043 | 0.668 ± 0.021 |
| NKLLDKESVSED [YLR046C C-terminal 12 aa] | 0.709 ± 0.027 | 0.711 ± 0.11 |
| RSLSSRSKECSK [NOC3 C-terminal 12 aa] | 0.71 ± 0.0075 | 0.672 ± 0.045 |
| RINQDIKKVKLL [EMP46 C-terminal 12 aa] | 0.6957 ± 0.0047 | 0.145 ± 0.016 |
| ALLDPSDTLNFM [RDR1 C-terminal 12 aa] | 0.697 ± 0.024 | 0.704 ± 0.055 |
| SILTHSTSPDSR [HYM1 C-terminal 12 aa] | 0.727 ± 0.033 | 0.718 ± 0.076 |
| SNYNNRTTDMPL [PSP2 C-terminal 12 aa] | 0.6781 ± 0.0018 | 0.703 ± 0.1 |
| YSELCIIVGTYY [YDR003W-A C-terminal 12 aa] | 0.431 ± 0.012 | 0.439 ± 0.036 |
| INDKYKSNRTDS [ATG2 C-terminal 12 aa] | 0.697 ± 0.022 | 0.7162 ± 0.00084 |
| ILDSFEEWSDEE [HDA1 C-terminal 12 aa] | 0.7224 ± 0.0053 | 0.688 ± 0.0073 |
| QSLYKDATSHWL [GYP1 C-terminal 12 aa] | 0.7085 ± 0.0033 | 0.6825 ± 0.0036 |
| LMETSKDVDSHP [DMA2 C-terminal 12 aa] | 0.7 ± 0.01 | 0.729 ± 0.0096 |
| DYDEEDPYEDPF [IKI1 C-terminal 12 aa] | 0.731 ± 0.042 | 0.6905 ± 0.0059 |
| FPEKNIVNLKSA [CHA1 C-terminal 12 aa] | 0.6971 ± 0.0067 | 0.1495 ± 0.0011 |
| LLLLILNECYPA [BUD30 C-terminal 12 aa] | 0.518 ± 0.0085 | 0.539 ± 0.033 |
| EEVETVSEHVKV [DPA10 C-terminal 12 aa] | 0.6781 ± 0.00078 | 0.691 ± 0.038 |
| TDGPNEKWLPDY [SKS1 C-terminal 12 aa] | 0.7099 ± 0.0056 | 0.712 ± 0.046 |
| ALDAVDDAIILD [GET1 C-terminal 12 aa] | 0.716 ± 0.0098 | 0.659 ± 0.021 |
| TDISGEKNSSKI [RLM1 C-terminal 12 aa] | 0.7039 ± 0.0055 | 0.756 ± 0.031 |
